* marks the point of attachment. X1 = 1,2‑dioleoyl‑sn‑glycero‑3‑succinate, CCCCCCCC/C=C\CCCCCCCC(=O)OC[C@H](COC(=O)CCC(=O)*)OC(=O)CCCCCCC/C=C\CCCCCCCC
How the values were obtained:
[1] = biological target: endothelin receptors on rat peritoneal mast cells (RBL) (rat); experiment: cell-based or functional assay
[2] = biological target: endothelin receptors on A549 human lung epithelial carcinoma cells (human); experiment: cell-based or functional assay

reduction of endothelin receptors after pre-exposure to unlabeled liposomes [1]: 50%
recovery of endothelin receptors after internalization [2]: 100%
reduction of endothelin receptors after pre-exposure to unlabeled liposomes [2]: 50%
B1: liposome complex comprising the conjugated endothelin peptide ligand 1,2-dioleoyl-sn-glycero-3-succinate-Cys-His-Leu-Asp-Ile-Ile-Trp-COOH (peptide)
peptide: X1-CHLDIIW-OH
modifications: not fully specified; printed as 1,2-dioleoyl-sn-glycero-3-succinate-Cys-His-Leu-Asp-Ile-Ile-Trp-COOH; also: lipid conjugate incorporated in liposomes
